The target of assay [1] is HIF-1α PAS-B domain (UniProt Q16665). In words: MST (microscale thermophoresis), labelled HIF-1α PAS-B [part 3 of 4]. Background: MST reads how a fluorescent partner responds to local heating, with and without ligand.
Assay [2] has the same target. In words: MST (microscale thermophoresis), labelled HIF-1α PAS-B [part 2 of 4].
For assay [3] the target is unchanged. Kind of assay: MST (microscale thermophoresis), labelled HIF-1α PAS-B [part 3 of 14) B].
The target is the same in assay [4]. In words: MST (microscale thermophoresis), labelled HIF-1α PAS-B [part 1 of 4) B].
For assay [5] the target is unchanged. Kind of assay: MST (microscale thermophoresis), labelled HIF-1α PAS-B [part 4 of 4].
Assay [6] has the same target. Kind of assay: MST.
In assay [7] the target is His-HIF-1α PAS-B domain (UniProt Q16665). Kind of assay: competition ELISA: inhibition of FLAG-HIF-1β PAS-B binding to plate-bound His-HIF-1α PAS-B. For orientation: An ELISA detects its analyte on a solid surface through an enzyme-linked reagent.
His-HIF-1α PAS-B domain, sequence (Q16665 238-349 limits assumed): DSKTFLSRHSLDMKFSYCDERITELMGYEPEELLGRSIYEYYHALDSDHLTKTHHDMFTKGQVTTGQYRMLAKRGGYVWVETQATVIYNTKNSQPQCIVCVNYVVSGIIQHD

HIF-1α PAS-B domain, sequence (Q16665 238-349 limits assumed): as above

Substance Cyclo-CL-Prop-F(CF3)IF(Br) (peptide) returned an EC50 (read off the curve) in assay [1] of 1000 nM.
Substance Cyclo-CLLF(CF3)-NV-F(Br) (peptide) returned a Kd in assay [2] of 22400 nM.
For Cyclo-CLLF(CF3)-Prop-F(Br) (peptide), the Kd in assay [2] came out at 1160 nM.
In the case of Cyclo-CLLY(Me)VY (peptide), the equilibrium dissociation constant (Kd) in assay [3] was > 200000 nM.
The substance Cyclo-CL-hL-F(CF3)IF(Br) (peptide) came in with an EC50 (read off the curve) in assay [1] of 700 nM. In other words, the sub-micromolar range.
The substance Cyclo-CL-Aib-F(CF3)IF(Br) (peptide) showed a 50% effective concentration (EC50 (read off the curve)) in assay [4] of 2000 nM. This counts as single-digit micromolar.
Cyclo-CL-NV-F(CF3)IF(Br) (peptide): the half-maximal effective concentration (EC50 (read off the curve)) in assay [2] is 600 nM. This lies in the sub-micromolar range.
Take “Cyclo-CL-NL-F(CF3)IF(Br) (Cys leu n-leu phe(CF3) ile phe(4-Br)) (peptide)”: the EC50 (read off the curve) in assay [5] was 500 nM.
Substance Cyclo-CLLF(CF3)-NL-F(Br) (peptide) came in with a Kd in assay [5] of 1030 nM. That is a single-digit micromolar value.
For “cyclo-CK-NL-F(CF3)IF(Br) (Cys lys n-leu phe(CF3) ile phe(4-Br)) (peptide)”, the dissociation constant Kd in assay [6] turned out to be 1660 nM. The IC50 in assay [7] is 27700 nM.
With Cyclo-CLLF(CF3)-Aib-F(Br) (peptide), the Kd in assay [1] amounted to 1920 nM.
With “Cyclo-CLLF(CF3)-hL-F(Br) (Cys leu leu phe(CF3) h-leu phe(4-Br)) (peptide)”, in assay [5], the dissociation constant (Kd) was 735 nM.

For orientation: EC50 (read off the curve) means the concentration giving half of the maximal effect. Read a high EC50 (read off the curve) as a need for much substance. Broadly, the Kd is the constant that tells how readily two partners part at equilibrium. As usually defined, the IC50 is the concentration that inhibits the measured activity by half. Read a low IC50 as greater potency in that assay.

Values taken from patent US20260062447A1, “COMPOUNDS” (UNIVERSITY OF SOUTHAMPTON, priority 2022, published 2026).
